Test results published in paper PMC6565636, “Rif1 promotes association of G-quadruplex (G4) by its specific G4 binding and oligomerization activities”.

Key:
[1] = target: T1, Rif1 full-length (His6-Rif1-FLAG3) (Schizosaccharomyces pombe (fission …, UniProt Q96UP3 1-1400)); assay: EMSA; KCl; EMSA with oligos heat-denatured and renatured in 50 mM KCl/40% PEG200 (Fig 5: 50 mM Tris-HCl pH 7.5 with KCl, NaCl or none); gel shift buffer 40 mM Hepes-KOH pH 7.6, 50 mM KCl, 1 mM EDTA, 10% glycerol, 0.01% Triton X-100; pull-down 30 min at room temperature; +++/++/+ = >50/>16/>6% shift at 1 nM Rif1; details: protein: recombinant, tags: N-term His6, C-term FLAG3, label: 32P
T1 sequence: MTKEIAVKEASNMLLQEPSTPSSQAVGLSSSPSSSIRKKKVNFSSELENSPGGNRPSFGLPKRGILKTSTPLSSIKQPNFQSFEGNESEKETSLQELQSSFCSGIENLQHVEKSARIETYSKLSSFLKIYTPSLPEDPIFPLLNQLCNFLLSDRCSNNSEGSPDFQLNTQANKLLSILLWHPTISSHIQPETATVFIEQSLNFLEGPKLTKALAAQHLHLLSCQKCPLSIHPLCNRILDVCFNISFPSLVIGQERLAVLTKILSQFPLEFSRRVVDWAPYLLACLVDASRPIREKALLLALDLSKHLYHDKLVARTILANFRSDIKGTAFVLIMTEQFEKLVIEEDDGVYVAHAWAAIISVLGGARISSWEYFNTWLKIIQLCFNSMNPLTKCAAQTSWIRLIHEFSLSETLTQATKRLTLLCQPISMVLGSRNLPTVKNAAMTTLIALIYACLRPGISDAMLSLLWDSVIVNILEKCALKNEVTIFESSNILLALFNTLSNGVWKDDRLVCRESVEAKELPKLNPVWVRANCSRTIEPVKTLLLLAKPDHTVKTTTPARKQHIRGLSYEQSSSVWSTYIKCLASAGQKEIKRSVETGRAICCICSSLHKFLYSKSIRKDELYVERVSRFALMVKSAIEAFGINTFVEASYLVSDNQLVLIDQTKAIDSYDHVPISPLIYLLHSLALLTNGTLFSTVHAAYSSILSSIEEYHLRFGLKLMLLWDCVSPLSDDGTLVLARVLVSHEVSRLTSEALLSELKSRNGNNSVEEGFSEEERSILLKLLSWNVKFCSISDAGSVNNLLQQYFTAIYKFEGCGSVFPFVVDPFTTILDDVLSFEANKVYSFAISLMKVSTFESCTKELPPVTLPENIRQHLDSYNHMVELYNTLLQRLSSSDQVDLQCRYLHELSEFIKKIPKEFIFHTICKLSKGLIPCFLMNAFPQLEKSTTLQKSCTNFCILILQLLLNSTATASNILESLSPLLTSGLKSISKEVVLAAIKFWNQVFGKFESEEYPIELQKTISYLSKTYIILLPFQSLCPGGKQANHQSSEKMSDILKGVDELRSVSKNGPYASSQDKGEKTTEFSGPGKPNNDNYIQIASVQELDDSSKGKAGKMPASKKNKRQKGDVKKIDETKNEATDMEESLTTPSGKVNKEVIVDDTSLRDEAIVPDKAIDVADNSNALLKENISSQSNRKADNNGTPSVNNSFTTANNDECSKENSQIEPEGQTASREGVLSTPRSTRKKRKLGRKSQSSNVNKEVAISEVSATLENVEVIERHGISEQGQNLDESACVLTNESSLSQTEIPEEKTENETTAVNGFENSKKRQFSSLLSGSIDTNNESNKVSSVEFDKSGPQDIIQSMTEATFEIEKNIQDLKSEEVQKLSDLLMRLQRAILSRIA

[2] = target: T1, Rif1 full-length (His6-Rif1-FLAG3); assay: EMSA; KCl; three repeats most efficient; EMSA with oligos heat-denatured and renatured in 50 mM KCl/40% PEG200 (Fig 5: 50 mM Tris-HCl pH 7.5 with KCl, NaCl or none); gel shift buffer 40 mM Hepes-KOH pH 7.6, 50 mM KCl, 1 mM EDTA, 10% glycerol, 0.01% Triton X-100; pull-down 30 min at room temperature; +++/++/+ = >50/>16/>6% shift at 1 nM Rif1; details: protein: recombinant; tags: N-term His6, C-term FLAG3; label: 32P
[3] = target: T1, Rif1 full-length (His6-Rif1-FLAG3); assay: EMSA; as efficient as or slightly better than AGTGn; EMSA with oligos heat-denatured and renatured in 50 mM KCl/40% PEG200 (Fig 5: 50 mM Tris-HCl pH 7.5 with KCl, NaCl or none); gel shift buffer 40 mM Hepes-KOH pH 7.6, 50 mM KCl, 1 mM EDTA, 10% glycerol, 0.01% Triton X-100; pull-down 30 min at room temperature; +++/++/+ = >50/>16/>6% shift at 1 nM Rif1; details: protein: recombinant, tags: N-term His6, C-term FLAG3, label: 32P

B1: AGTGGG (ssDNA)
DNA: AGTGGG
B1: no binding [1].

B2: Htelo3 (structured_DNA)
DNA: GGGTTAGGGTTAGGGTTAGGGT
B2: no binding ([1]; hybrid G4 in K+ (CD)).

B3: (AGTGGG)2 (structured_DNA)
DNA: AGTGGGAGTGGG
B3: binds [1].

B4: CEB1_TA (structured_DNA)
DNA: AGGGTAGGGAGGGAGGGTGG
B4: binds ([1]; parallel G4 in KCl).

B5: (AGTGGGG)4 (structured_DNA)
DNA: AGTGGGGAGTGGGGAGTGGGGAGTGGGG
B5: binds [1].

B6: 93del (structured_DNA)
DNA: GGGGTGGGAGGAGGGT
B6: binds ([1]; parallel G4 (dimeric)).

B7: (AGTGGG)4 (structured_DNA)
DNA: AGTGGGAGTGGGAGTGGGAGTGGG
B7: binds [1].

B8: Htelo1_A (structured_DNA)
DNA: TAGGGAGGGTTAGGGTTAGGG
B8: no binding ([1]; hybrid or mix G4).

B9: CEB1_TTA (structured_DNA)
DNA: AGGGTTAGGGAGGGAGGGTGG
B9: binds ([1]; parallel G4 in KCl).

B10: Htelo4 (structured_DNA)
DNA: AGGGCTAGGGCTAGGGCTAGGG
B10: no binding ([1]; antiparallel G4 (chair)).

B11: (AGTGGGGG)2 (structured_DNA)
DNA: AGTGGGGGAGTGGGGG
B11: binds [1].

B12: T6(GA)12 (ssDNA)
DNA: TTTTTTGAGAGAGAGAGAGAGAGAGAGAGA
B12: no binding ([1]; no G4).

B13: (AGTGGG)3 (structured_DNA)
DNA: AGTGGGAGTGGGAGTGGG
B13: binds [2].

B14: (AGTGGGG)2 (structured_DNA)
DNA: AGTGGGGAGTGGGG
B14: binds [1].

B15: Pu24T (structured_DNA)
DNA: TGAGGGTGGTGAGGGTGGGGA
B15: binds ([1]; parallel G4).

B16: DX1 (dsDNA)
DNA 1: CGCGAATTCGCG
DNA 2: CGCGAATTCGCG
B16: no binding ([1]; blunt, self-complementary).

B17: Htelo4_3nt_spacer (structured_DNA)
DNA: AGGGCTAGGGCTACTAGGGCTAGGG
B17: no binding ([1]; antiparallel G4).

B18: ACAGGGG (structured_DNA)
DNA: ACAGGGG
B18: binds [3].

B19: DX2 (structured_DNA)
DNA: ATCTGAGAATCAGAT
B19: no binding ([1]; hairpin).

B20: CEB1_A (structured_DNA)
DNA: AGGGAGGGAGGGAGGGTGG
B20: binds ([1]; parallel G4).

B21: CEB1 (structured_DNA)
DNA: AGGGGGGAGGGAGGGTGG
B21: binds ([1]; parallel G4 (dimeric)).

B22: Htelo1_no_spacer_2 (structured_DNA)
DNA: TAGGGTTAGGGTTAGGGGGG
B22: binds ([1]; mix G4 in KCl, antiparallel in NaCl).

B23: Rif1-8 (70 nt) (structured_DNA)
DNA: GTGGGGGATGTGGGATAGACTATTTTAGACTTGAGACTGTGTATTCACTTAAAAGTGCTATGTGGGGGCA
B23: binds ([1]; parallel G4).

B24: T95_2T_G (structured_DNA)
DNA: TTGGGGTGGGTGGGTGGGT
B24: no binding ([1]; parallel G4).

B25: (ACAGGGGG)3 (structured_DNA)
DNA: ACAGGGGGACAGGGGGACAGGGGG
B25: binds [3].

B26: Htelo4(GGGGGG)_3nt_spacer (structured_DNA)
DNA: AGGGCTAGGGCTACTAGGGGGG
B26: binds ([1]; hybrid G4 in KCl, antiparallel in NaCl).

B27: CEB1_deltaGG (structured_DNA)
DNA: AGGGGGGAGGGAGGGT
B27: binds ([1]; parallel G4).

B28: Htelo1_no_spacer (structured_DNA)
DNA: TAGGGGGGTTAGGGTTAGGG
B28: binds ([1]; parallel G4).

B29: (AGTGGGGG)3 (structured_DNA)
DNA: AGTGGGGGAGTGGGGGAGTGGGGG
B29: binds [2].

B30: ACAGGGGG (structured_DNA)
DNA: ACAGGGGG
B30: binds ([3]; slow-migrating multimers).

B31: HT (structured_DNA)
DNA: TTGGGTTAGGGTTAGGGTTAGGGA
B31: no binding ([1]; hybrid G4).

B32: T95_2T_GG (structured_DNA)
DNA: TTGGGGGTGGGTGGGTGGGT
B32: no binding ([1]; parallel G4).

B33: (AGTGGGGG)4 (structured_DNA)
DNA: AGTGGGGGAGTGGGGGAGTGGGGGAGTGGGGG
B33: binds [1].

B34: (AGTGGGG)3 (structured_DNA)
DNA: AGTGGGGAGTGGGGAGTGGGG
B34: binds [2].

B35: Htelo4(GGGGGG) (structured_DNA)
DNA: AGGGCTAGGGCTAGGGGGG
B35: binds ([1]; hybrid G4).

B36: (ACAGGGG)3 (structured_DNA)
DNA: ACAGGGGACAGGGGACAGGGG
B36: binds [3].
